The values that follow come from patent US20140087995A1 (published 2014).

B1: N^ε1-[2-[2-[2-[[(4S)-4-carboxy-4-(19-carboxynonadecanoylamino)butanoyl]amino]ethoxy]ethoxy]acetyl]-[Ala14,Arg17,Pro21,Pro27,Pro31]-h-amylin (peptide)
peptide: K([AEEA-γGlu-C20 diacid])CNTATCATQRLAAFLRHSSPNFGAIPSSTPVGSNTY-NH2
modifications: disulfide 2-7; N-terminus assumed
SMILES: CC[C@H](C)[C@H](NC(=O)[C@H](C)NC(=O)CNC(=O)[C@H](Cc1ccccc1)NC(=O)[C@H](CC(N)=O)NC(=O)[C@@H]1CCCN1C(=O)[C@H](CO)NC(=O)[C@H](CO)NC(=O)[C@H](Cc1c[nH]cn1)NC(=O)[C@H](CCCNC(=N)N)NC(=O)[C@H](CC(C)C)NC(=O)[C@H](Cc1ccccc1)NC(=O)[C@H](C)NC(=O)[C@H](C)NC(=O)[C@H](CC(C)C)NC(=O)[C@H](CCCNC(=N)N)NC(=O)[C@H](CCC(N)=O)NC(=O)[C@@H](NC(=O)[C@H](C)NC(=O)[C@@H]1CSSC[C@H](NC(=O)[C@@H](N)CCCCNC(=O)COCCOCCNC(=O)CC[C@H](NC(=O)CCCCCCCCCCCCCCCCCCC(=O)O)C(=O)O)C(=O)N[C@@H](CC(N)=O)C(=O)N[C@@H]([C@@H](C)O)C(=O)N[C@@H](C)C(=O)N[C@@H]([C@@H](C)O)C(=O)N1)[C@@H](C)O)C(=O)N1CCC[C@H]1C(=O)N[C@@H](CO)C(=O)N[C@@H](CO)C(=O)N[C@H](C(=O)N1CCC[C@H]1C(=O)N[C@H](C(=O)NCC(=O)N[C@@H](CO)C(=O)N[C@@H](CC(N)=O)C(=O)N[C@H](C(=O)N[C@@H](Cc1ccc(O)cc1)C(N)=O)[C@@H](C)O)C(C)C)[C@@H](C)O
notes: also called compound 72
B2: N^ε1-[2-[2-[2-[[(4S)-4-carboxy-4-(19-carboxynonadecanoylamino)butanoyl]amino]ethoxy]ethoxy]acetyl]-[Arg14,Arg17,Pro21,Pro27]-h-amylin (peptide)
peptide: K([AEEA-γGlu-C20 diacid])CNTATCATQRLARFLRHSSPNFGAIPSSTNVGSNTY-NH2
modifications: disulfide 2-7; N-terminus assumed
SMILES: CC[C@H](C)[C@H](NC(=O)[C@H](C)NC(=O)CNC(=O)[C@H](Cc1ccccc1)NC(=O)[C@H](CC(N)=O)NC(=O)[C@@H]1CCCN1C(=O)[C@H](CO)NC(=O)[C@H](CO)NC(=O)[C@H](Cc1c[nH]cn1)NC(=O)[C@H](CCCNC(=N)N)NC(=O)[C@H](CC(C)C)NC(=O)[C@H](Cc1ccccc1)NC(=O)[C@H](CCCNC(=N)N)NC(=O)[C@H](C)NC(=O)[C@H](CC(C)C)NC(=O)[C@H](CCCNC(=N)N)NC(=O)[C@H](CCC(N)=O)NC(=O)[C@@H](NC(=O)[C@H](C)NC(=O)[C@@H]1CSSC[C@H](NC(=O)[C@@H](N)CCCCNC(=O)COCCOCCNC(=O)CC[C@H](NC(=O)CCCCCCCCCCCCCCCCCCC(=O)O)C(=O)O)C(=O)N[C@@H](CC(N)=O)C(=O)N[C@@H]([C@@H](C)O)C(=O)N[C@@H](C)C(=O)N[C@@H]([C@@H](C)O)C(=O)N1)[C@@H](C)O)C(=O)N1CCC[C@H]1C(=O)N[C@@H](CO)C(=O)N[C@@H](CO)C(=O)N[C@H](C(=O)N[C@@H](CC(N)=O)C(=O)N[C@H](C(=O)NCC(=O)N[C@@H](CO)C(=O)N[C@@H](CC(N)=O)C(=O)N[C@H](C(=O)N[C@@H](Cc1ccc(O)cc1)C(N)=O)[C@@H](C)O)C(C)C)[C@@H](C)O
notes: also called compound 82
B3: N^ε1-[2-[2-[2-[[(4S)-4-carboxy-4-(19-carboxynonadecanoylamino)butanoyl]amino]ethoxy]ethoxy]acetyl]-[Arg14,Arg17,Pro21,Pro27,Pro31]-h-amylin (peptide)
peptide: K([AEEA-γGlu-C20 diacid])CNTATCATQRLARFLRHSSPNFGAIPSSTPVGSNTY-NH2
modifications: disulfide 2-7; N-terminus assumed
SMILES: CC[C@H](C)[C@H](NC(=O)[C@H](C)NC(=O)CNC(=O)[C@H](Cc1ccccc1)NC(=O)[C@H](CC(N)=O)NC(=O)[C@@H]1CCCN1C(=O)[C@H](CO)NC(=O)[C@H](CO)NC(=O)[C@H](Cc1c[nH]cn1)NC(=O)[C@H](CCCNC(=N)N)NC(=O)[C@H](CC(C)C)NC(=O)[C@H](Cc1ccccc1)NC(=O)[C@H](CCCNC(=N)N)NC(=O)[C@H](C)NC(=O)[C@H](CC(C)C)NC(=O)[C@H](CCCNC(=N)N)NC(=O)[C@H](CCC(N)=O)NC(=O)[C@@H](NC(=O)[C@H](C)NC(=O)[C@@H]1CSSC[C@H](NC(=O)[C@@H](N)CCCCNC(=O)COCCOCCNC(=O)CC[C@H](NC(=O)CCCCCCCCCCCCCCCCCCC(=O)O)C(=O)O)C(=O)N[C@@H](CC(N)=O)C(=O)N[C@@H]([C@@H](C)O)C(=O)N[C@@H](C)C(=O)N[C@@H]([C@@H](C)O)C(=O)N1)[C@@H](C)O)C(=O)N1CCC[C@H]1C(=O)N[C@@H](CO)C(=O)N[C@@H](CO)C(=O)N[C@H](C(=O)N1CCC[C@H]1C(=O)N[C@H](C(=O)NCC(=O)N[C@@H](CO)C(=O)N[C@@H](CC(N)=O)C(=O)N[C@H](C(=O)N[C@@H](Cc1ccc(O)cc1)C(N)=O)[C@@H](C)O)C(C)C)[C@@H](C)O
notes: also called compound 64
B4: N^ε1-[2-[2-[2-[[(4S)-4-carboxy-4-(19-carboxynonadecanoylamino)butanoyl]amino]ethoxy]ethoxy]acetyl]-[Arg17,Pro21,Pro27,Arg34]-h-amylin (peptide)
peptide: K([AEEA-γGlu-C20 diacid])CNTATCATQRLANFLRHSSPNFGAIPSSTNVGRNTY-NH2
modifications: disulfide 2-7; N-terminus assumed
SMILES: CC[C@H](C)[C@H](NC(=O)[C@H](C)NC(=O)CNC(=O)[C@H](Cc1ccccc1)NC(=O)[C@H](CC(N)=O)NC(=O)[C@@H]1CCCN1C(=O)[C@H](CO)NC(=O)[C@H](CO)NC(=O)[C@H](Cc1c[nH]cn1)NC(=O)[C@H](CCCNC(=N)N)NC(=O)[C@H](CC(C)C)NC(=O)[C@H](Cc1ccccc1)NC(=O)[C@H](CC(N)=O)NC(=O)[C@H](C)NC(=O)[C@H](CC(C)C)NC(=O)[C@H](CCCNC(=N)N)NC(=O)[C@H](CCC(N)=O)NC(=O)[C@@H](NC(=O)[C@H](C)NC(=O)[C@@H]1CSSC[C@H](NC(=O)[C@@H](N)CCCCNC(=O)COCCOCCNC(=O)CC[C@H](NC(=O)CCCCCCCCCCCCCCCCCCC(=O)O)C(=O)O)C(=O)N[C@@H](CC(N)=O)C(=O)N[C@@H]([C@@H](C)O)C(=O)N[C@@H](C)C(=O)N[C@@H]([C@@H](C)O)C(=O)N1)[C@@H](C)O)C(=O)N1CCC[C@H]1C(=O)N[C@@H](CO)C(=O)N[C@@H](CO)C(=O)N[C@H](C(=O)N[C@@H](CC(N)=O)C(=O)N[C@H](C(=O)NCC(=O)N[C@@H](CCCNC(=N)N)C(=O)N[C@@H](CC(N)=O)C(=O)N[C@H](C(=O)N[C@@H](Cc1ccc(O)cc1)C(N)=O)[C@@H](C)O)C(C)C)[C@@H](C)O
notes: also called compound 78

Numbered stars: 1 amine (or outer) side, 2 acyl side, 3 side chain; on linkers, the order of the positions; unused ones are H or OH. Bridge positions count the residues as written; N and C are the ends. Side chains are listed from the residue outwards. Ends that are not written are not given here. * marks the point of attachment. C20 diacid = O=C(O)CCCCCCCCCCCCCCCCCCC(=O)*; γGlu = O=C(O)[C@H](CCC(=O)[*:2])N[*:1]; AEEA = NCCOCCOCC(=O)O

One assay addresses T1, human calcitonin receptor (human, UniProt P30988 25-474).
T1 construct: whole, on cells; Assayed as cell membranes of BHK tk'ts 13 cells stably transfected with the human calcitonin receptor (Assay VII); also called hCTR; hCT
T1 sequence (looked up): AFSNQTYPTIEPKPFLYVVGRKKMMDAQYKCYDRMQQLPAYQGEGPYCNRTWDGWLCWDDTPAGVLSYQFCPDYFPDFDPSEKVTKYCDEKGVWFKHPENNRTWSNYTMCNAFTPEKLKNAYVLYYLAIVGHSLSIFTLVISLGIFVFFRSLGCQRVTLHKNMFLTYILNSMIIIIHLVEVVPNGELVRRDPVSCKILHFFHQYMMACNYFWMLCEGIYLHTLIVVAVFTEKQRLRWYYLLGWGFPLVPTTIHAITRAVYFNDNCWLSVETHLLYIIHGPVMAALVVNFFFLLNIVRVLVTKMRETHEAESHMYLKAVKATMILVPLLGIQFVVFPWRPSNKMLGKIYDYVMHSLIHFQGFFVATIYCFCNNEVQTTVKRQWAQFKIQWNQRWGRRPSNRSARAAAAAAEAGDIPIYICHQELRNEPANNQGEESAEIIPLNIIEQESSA
Description: SPA competition vs 125I-calcitonin, membranes of BHK cells with human calcitonin receptor (Assay VII). As for the experimental part: Membranes were prepared in the following way; the cells were rinsed with PBS and incubated with Versene for approximately 5 min before harvesting. The cells were flushed with PBS and the cell-suspension was centrifuged for 5 min at 1000 rpm. Cells were homogenized (Ultrathurrax) in a buffer containing 20 mM Na-HEPES and 10 mM EDTA (pH 7.4) and centrifuged at 20.000 rpm for 15 min. The resulting pellet was resuspended, homogenized and centrifuged (20.000 rpm, 15 min) in a buffer containing 20 mM Na-HEPES and 0.1 mM EDTA (pH 7.4, buffer 2). The resulting pellet was resuspended in buffer 2 and protein concentration was measured (BCA protein Assay, Pierce). The homogenate was kept cold during the whole procedure. The membranes were kept at −80° C. until use. Assay was performed in a 384 well Optiplate (PerkinElmer) in a total volume of 40 ul. Membranes were mixed with SPA beads. Final concentration of membranes 35 ng/μL final and Final concentration of SPA beads was 0.05 mg/well. Test-compounds were dissolved in DMSO and further diluted in assay buffer (50 mM Hepes, pH 7.4, 1 mM CaCl2, 5 mM MgCl₂, 0.1% OA and 0.02% Tween20). […] The final mixture was incubated for 120 min with shaking at 400 rpm at 25° C. prior to centrifugation (1500 rpm, 10 min). Samples were analyzed on TopCounter™ (Packard). The […] was calculated using (one site binding competition analysis) GraphPad Prism5 as a measure of receptor affinity.
As to B1, the IC50 was 42.4 nM.

Turning to B2, the IC50 was 88.8 nM.

B3: the IC50 was found to be 56 nM.

As for B4, the IC50 was 36.5 nM.

Another assay deals with T1, human calcitonin receptor. The assay is described as follows: IC50 at hCTR divided by IC50 at hAmylin-R (SPA competition assays V and VII). The procedure:
The resulting pellet was resuspended, homogenized and centrifuged (20.000 rpm, 15 min) in a buffer containing 20 mM Na-HEPES and 0.1 mM EDTA (pH 7.4, buffer 2). The resulting pellet was resuspended in buffer 2 and protein concentration was measured (BCA protein Assay, Pierce). The homogenate was kept cold during the whole procedure. The membranes were kept at −80° C. until use. The assay was performed in a 384 well Optiplate (PerkinElmer) in a total volume of 40 ul. Membranes were mixed with SPA beads. Final concentration of membranes 35 ng/μL final and SPA beads was 0.05 mg/well. Test-compounds were dissolved in DMSO and further diluted in assay buffer (50 mM Hepes, pH 7.4, 1 mM CaCl2, 5 mM MgCl₂, 0.1% OA and 0.02% Tween20). […] The final mixture was incubated with shaking at 400 rpm for 120 min at 25° C. prior to centrifugation (1500 rpm, 10 min). Samples were analyzed on TopCounter™ (Packard). The IC₅₀ was calculated using (one site binding competition analysis) GraphPad Prism5 as a measure of receptor affinity.
Membranes were prepared in the following way; the cells were rinsed with PBS and incubated with Versene for approximately 5 min before harvesting. The cells were flushed with PBS and the cell-suspension was centrifuged for 5 min at 1000 rpm. Cells were homogenized (Ultrathurrax) in a buffer containing 20 mM Na-HEPES and 10 mM EDTA (pH 7.4) and centrifuged at 20.000 rpm for 15 min. The resulting pellet was resuspended, homogenized and centrifuged (20.000 rpm, 15 min) in a buffer containing 20 mM Na-HEPES and 0.1 mM EDTA (pH 7.4, buffer 2). The resulting pellet was resuspended in buffer 2 and protein concentration was measured (BCA protein Assay, Pierce). The homogenate was kept cold during the whole procedure. The membranes were kept at −80° C. until use. Assay was performed in a 384 well Optiplate (PerkinElmer) in a total volume of 40 ul. Membranes were mixed with SPA beads.
For the molecule B1, the “Ratio hCT/hAmylin binding” value is 247.

As to B2, the “Ratio hCT/hAmylin binding” value turned out to be 140.

Regarding B3, the “Ratio hCT/hAmylin binding” value turned out to be 126.

As to B4, the “Ratio hCT/hAmylin binding” value worked out at 60.7.
